From US9682130B2 (priority 2015, dated 2017)

Columns and labels:
[1] = Eye irritation, Draize scale (MMTS), Ad5/NZW rabbit ocular model; type: in vivo; conditions: for Ocular irritation MMTS score, Day 3 / Ocular irritation MMTS score, Day 9 / Ocular irritation class, Day 3 / Ocular irritation class, Day 9: topical both eyes 8x daily
Procedure: (§1) To conduct this in vivo assay, 25 NZW rabbit were anesthetized using the general anesthesia ketamine and xylazine and the topical anesthesia proparacaine. Each rabbit was then topically inoculated with 50 μL of Adenovirus serotype Ad5 (3×10^7 pfu/mL) in both eyes after corneal epithelial scarification (12 cross-hatched strokes of a 25 sterile needle). Eyes were closed and gently rubbed for 5 seconds to ensure contact of the virus on all ocular surfaces. Inoculation of both eyes allowed for the reduction in the number of animals needed without jeopardizing statistical validity. […] All topical solutions (37 μL drops) were instilled with an electronic pipette (EDP; Rainin, Oakland, Calif.) set in the multi-dispense mode. Ocular swabbing to recover adenovirus from tear film and corneal and conjunctival surfaces, after topical anesthesia with proparacaine, was performed at least 1 hour after the final dose on days 0, 1, 3, 4, 5, 7, 9, 11, and 14 after inoculation. The ocular samples from each eye was placed individually into tubes containing 1 mL of medium and were frozen at −70° C. pending viral plaque assay.
The animals were assayed for eye irritation using a Draize scale for ocular lesions. Classification of eye irritation was evaluated for both eyes of each rabbit on day 3 and day 9 using the maximum mean total score (MMTS; Table 4). See, e.g., Kay and Calandra, Interpretation of Eye Irritation Tests, J. Soc. Cos. Chem. 13: 281-289 (1962), the content of which is hereby incorporated by reference in its entirety. The MMTS score used was as follows: 0.0-0.5, Non-Irritating (N); 0.6-2.5, Practically Non-Irritating (PN); 2.6-15.0, Minimally Irritating (M1); 15.1-25.0, Mildly Irritating (M2); 25.1-50.0, Moderately Irritating (M3); 50.1-80.0, Severely Irritating (S); 80.1-100.0, Extremely Irritating (E); and 100.1-110.0, Maximally Irritating (Mx).

HIV-1 = conditions: final concentrations that are not cytotoxic; cited from earlier work
Adenovirus serotype Ad5 = assay: Ad5/NZW rabbit ocular replication model, plaque assay of ocular samples; type: in vivo; conditions: for Ad5-positive ocular samples, percent, Day 1 / Ad5-positive ocular samples, percent, Day 3 / Ad5-positive ocular samples, percent, Day 4 / Ad5-positive ocular samples, percent, Day 5 / Ad5-positive ocular samples, percent, Day 7 / Ad5-positive ocular samples, percent, Day 11 / Ad5-positive ocular samples, percent, Day 14 / Ad5-positive ocular samples, percent, Total / Ad5-positive ocular samples/total eyes, Day 1 / Ad5-positive ocular samples/total eyes, Day 3 / Ad5-positive ocular samples/total eyes, Day 4 / Ad5-positive ocular samples/total eyes, Day 5 / Ad5-positive ocular samples/total eyes, Day 7 / Ad5-positive ocular samples/total eyes, Day 11 / Ad5-positive ocular samples/total eyes, Day 14 / Ad5-positive ocular samples/total eyes, Total: 8x daily 9 days
Procedure: See, e.g., Romanowski, et al., The In Vitro and In Vivo Evaluation of ddC as a Topical Antiviral for Ocular Adenovirus Infections, Invest. Ophthalmol. Vis. Sci. 50: 5295-5299 (2009), which is hereby incorporated by reference in its entirety.
as §1, with “surfaces.” for “surfaces. Inoculation of both eyes allowed for the reduction in the number of animals needed without jeopardizing statistical validity.”
The ocular samples were assayed for Ad5 titers by performing a plaque reduction assay. Samples were diluted 1:10 and these dilutions were inoculated onto duplicate wells of a 24 well multi-plate containing A549 monolayers. The virus was adsorbed for 3 hours at 37° C. in a 5% CO2-water vapor atmosphere without constant rocking. After adsorption, 1 mL of medium plus 0.5% methylcellulose was added to each well, and the plates were incubated at 37° C. in a 5% CO2-water vapor atmosphere. After 7 days, the cells were stained with 0.5% gentian violet, and the number of plaques counted using a dissecting microscope (25×). The viral titers were then calculated, and will be expressed as plaque-forming units per milliliter (PFU/mL). Data from the study were analyzed using analysis of variance (ANOVA) with Fisher's pair-wise comparisons and X^2 analyses using True Epistat and/or Minitab statistical software. Significance was established at the P≦0.05 confidence level.

[2] = 25, 2.5 and 0.25 μM Ranpirnase, Ad5/NZW rabbit ocular model

B1: Ranpirnase (protein, UniProt P22069 1-104, looked up)
Protein P-30: QDWLTFQKKHITNTRDVDCDNIMSTNLFHCKDKNTFIYSRPEPVKAICKGIIASKNVLTTSEFYLSDCNVTSRPCKYKLKKSTNKFCVTCENQAPVHFVGVGSC
notes: amphibian ribonuclease originally isolated from oocytes and/or early embryos of Rana pipiens; pancreatic ribonuclease (RNase A) superfamily, about 12 kD
Eye irritation compared to saline and Cidofovir controls ([1]; 0.25 μM Ranpirnase): no eye irritation as compared to both the saline and Cidofovir controls
Ocular irritation MMTS score, Day 3 ([1]; 0.25 μM Ranpirnase (group 1C)): 7.5
Ocular irritation MMTS score, Day 9 ([1]; 0.25 μM Ranpirnase (group 1C)): 22.5
Ocular irritation class, Day 3 ([1]; 0.25 μM Ranpirnase (group 1C)): M1 (2.6-15.0, Minimally Irritating (M1))
Ocular irritation class, Day 9 ([1]; 0.25 μM Ranpirnase (group 1C)): M2 (15.1-25.0, Mildly Irritating (M2))
Ocular irritation MMTS score, Day 3 ([1]; 2.5 μM Ranpirnase (group 1B)): 14.6
Ocular irritation MMTS score, Day 9 ([1]; 2.5 μM Ranpirnase (group 1B)): 60.7
Ocular irritation class, Day 3 ([1]; 2.5 μM Ranpirnase (group 1B)): M1 (2.6-15.0, Minimally Irritating (M1))
Ocular irritation class, Day 9 ([1]; 2.5 μM Ranpirnase (group 1B)): S (50.1-80.0, Severely Irritating (S))
Ocular irritation MMTS score, Day 3 ([1]; 25 μM Ranpirnase (group 1A)): 22.0
Ocular irritation MMTS score, Day 9 ([1]; 25 μM Ranpirnase (group 1A)): 85.0
Ocular irritation class, Day 3 ([1]; 25 μM Ranpirnase (group 1A)): M2 (15.1-25.0, Mildly Irritating (M2))
Ocular irritation class, Day 9 ([1]; 25 μM Ranpirnase (group 1A)): E (80.1-100.0, Extremely Irritating (E))
Ocular toxicity compared to Saline and CDV controls [1, 2]: dose dependent ocular toxicity
Inhibition of replication of HIV-1 (HIV-1): up to 99.9%
Ad5-positive ocular samples, percent, Day 1 (Adenovirus serotype Ad5; 0.25 μM Ranpirnase (group 1C)): 100%
Ad5-positive ocular samples, percent, Day 3 (Adenovirus serotype Ad5; 0.25 μM Ranpirnase (group 1C)): 100%
Ad5-positive ocular samples, percent, Day 4 (Adenovirus serotype Ad5; 0.25 μM Ranpirnase (group 1C)): 100%
Ad5-positive ocular samples, percent, Day 5 (Adenovirus serotype Ad5; 0.25 μM Ranpirnase (group 1C)): 100%
Ad5-positive ocular samples, percent, Day 7 (Adenovirus serotype Ad5; 0.25 μM Ranpirnase (group 1C)): 88%
Ad5-positive ocular samples, percent, Day 11 (Adenovirus serotype Ad5; 0.25 μM Ranpirnase (group 1C)): 38%
Ad5-positive ocular samples, percent, Day 14 (Adenovirus serotype Ad5; 0.25 μM Ranpirnase (group 1C)): 0%
Ad5-positive ocular samples, percent, Total (Adenovirus serotype Ad5; 0.25 μM Ranpirnase (group 1C)): 76.7%
Ad5-positive ocular samples/total eyes, Day 1 (Adenovirus serotype Ad5; 0.25 μM Ranpirnase (group 1C)): 10/10
Ad5-positive ocular samples/total eyes, Day 3 (Adenovirus serotype Ad5; 0.25 μM Ranpirnase (group 1C)): 10/10
Ad5-positive ocular samples/total eyes, Day 4 (Adenovirus serotype Ad5; 0.25 μM Ranpirnase (group 1C)): 8/8
Ad5-positive ocular samples/total eyes, Day 5 (Adenovirus serotype Ad5; 0.25 μM Ranpirnase (group 1C)): 8/8
Ad5-positive ocular samples/total eyes, Day 7 (Adenovirus serotype Ad5; 0.25 μM Ranpirnase (group 1C)): 7/8
Ad5-positive ocular samples/total eyes, Day 11 (Adenovirus serotype Ad5; 0.25 μM Ranpirnase (group 1C)): 3/8
Ad5-positive ocular samples/total eyes, Day 14 (Adenovirus serotype Ad5; 0.25 μM Ranpirnase (group 1C)): 0/8
Ad5-positive ocular samples/total eyes, Total (Adenovirus serotype Ad5; 0.25 μM Ranpirnase (group 1C)): 46/60
Ad5-positive ocular samples, percent, Day 1 (Adenovirus serotype Ad5; 2.5 μM Ranpirnase (group 1B)): 100%
Ad5-positive ocular samples, percent, Day 3 (Adenovirus serotype Ad5; 2.5 μM Ranpirnase (group 1B)): 100%
Ad5-positive ocular samples, percent, Day 4 (Adenovirus serotype Ad5; 2.5 μM Ranpirnase (group 1B)): 100%
Ad5-positive ocular samples, percent, Day 5 (Adenovirus serotype Ad5; 2.5 μM Ranpirnase (group 1B)): 80%
Ad5-positive ocular samples, percent, Day 7 (Adenovirus serotype Ad5; 2.5 μM Ranpirnase (group 1B)): 70%
Ad5-positive ocular samples, percent, Day 11 (Adenovirus serotype Ad5; 2.5 μM Ranpirnase (group 1B)): 0%
Ad5-positive ocular samples, percent, Day 14 (Adenovirus serotype Ad5; 2.5 μM Ranpirnase (group 1B)): 0%
Ad5-positive ocular samples, percent, Total (Adenovirus serotype Ad5; 2.5 μM Ranpirnase (group 1B)): 64.3%
Ad5-positive ocular samples/total eyes, Day 1 (Adenovirus serotype Ad5; 2.5 μM Ranpirnase (group 1B)): 10/10
Ad5-positive ocular samples/total eyes, Day 3 (Adenovirus serotype Ad5; 2.5 μM Ranpirnase (group 1B)): 10/10
Ad5-positive ocular samples/total eyes, Day 4 (Adenovirus serotype Ad5; 2.5 μM Ranpirnase (group 1B)): 10/10
Ad5-positive ocular samples/total eyes, Day 5 (Adenovirus serotype Ad5; 2.5 μM Ranpirnase (group 1B)): 8/10
Ad5-positive ocular samples/total eyes, Day 7 (Adenovirus serotype Ad5; 2.5 μM Ranpirnase (group 1B)): 7/10
Ad5-positive ocular samples/total eyes, Day 11 (Adenovirus serotype Ad5; 2.5 μM Ranpirnase (group 1B)): 0/10
Ad5-positive ocular samples/total eyes, Day 14 (Adenovirus serotype Ad5; 2.5 μM Ranpirnase (group 1B)): 0/10
Ad5-positive ocular samples/total eyes, Total (Adenovirus serotype Ad5; 2.5 μM Ranpirnase (group 1B)): 45/70
Ad5-positive ocular samples, percent, Day 1 (Adenovirus serotype Ad5; 25 μM Ranpirnase (group 1A)): 100%
Ad5-positive ocular samples, percent, Day 3 (Adenovirus serotype Ad5; 25 μM Ranpirnase (group 1A)): 100%
Ad5-positive ocular samples, percent, Day 4 (Adenovirus serotype Ad5; 25 μM Ranpirnase (group 1A)): 100%
Ad5-positive ocular samples, percent, Day 5 (Adenovirus serotype Ad5; 25 μM Ranpirnase (group 1A)): 90%
Ad5-positive ocular samples, percent, Day 7 (Adenovirus serotype Ad5; 25 μM Ranpirnase (group 1A)): 30%
Ad5-positive ocular samples, percent, Day 11 (Adenovirus serotype Ad5; 25 μM Ranpirnase (group 1A)): 0%
Ad5-positive ocular samples, percent, Day 14 (Adenovirus serotype Ad5; 25 μM Ranpirnase (group 1A)): 0%
Ad5-positive ocular samples, percent, Total (Adenovirus serotype Ad5; 25 μM Ranpirnase (group 1A)): 60%
Ad5-positive ocular samples/total eyes, Day 1 (Adenovirus serotype Ad5; 25 μM Ranpirnase (group 1A)): 10/10
Ad5-positive ocular samples/total eyes, Day 3 (Adenovirus serotype Ad5; 25 μM Ranpirnase (group 1A)): 10/10
Ad5-positive ocular samples/total eyes, Day 4 (Adenovirus serotype Ad5; 25 μM Ranpirnase (group 1A)): 10/10
Ad5-positive ocular samples/total eyes, Day 5 (Adenovirus serotype Ad5; 25 μM Ranpirnase (group 1A)): 9/10
Ad5-positive ocular samples/total eyes, Day 7 (Adenovirus serotype Ad5; 25 μM Ranpirnase (group 1A)): 3/10
Ad5-positive ocular samples/total eyes, Day 11 (Adenovirus serotype Ad5; 25 μM Ranpirnase (group 1A)): 0/10
Ad5-positive ocular samples/total eyes, Day 14 (Adenovirus serotype Ad5; 25 μM Ranpirnase (group 1A)): 0/10
Ad5-positive ocular samples/total eyes, Total (Adenovirus serotype Ad5; 25 μM Ranpirnase (group 1A)): 42/70
Antiviral efficacy compared to the Saline (negative) control (Adenovirus serotype Ad5; [2]): dose dependent antiviral efficacy
